In US20140271467A1 (Stanford University, published 2014):
Residue numbers refer to the chain shown, from its start. Values belong to the binder of their own block, whether it stands above or below them.

Tests used:
[1] = biological target: T1, biotinylated human CD20 extracellular loop peptide (amino acids 165-185) (human, biotin at the C-terminus (printed as SEQ ID NO: 1-biotin)); assay: selection from the G4 library against the CD20 peptide
T1 construct: Chemically synthesized; also called CD20 peptide; biotin-CD20 peptide
T1 peptide: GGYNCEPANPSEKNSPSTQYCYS
Description: The human CD20 peptide extracellular loop was synthesized (amino acids: 165-185; […] (SEQ ID NO: 1)-biotin) and purified by RP-HPLC on a C-18 column and lyophilized as per the published procedure (29). This peptide was characterized by ESI-MS and immobilized on streptavidin magnetic beads for screening of FN3 binders. […] Briefly, yeast displaying 2.5×10⁸ FN3 mutants were sorted for binding to magnetic beads with immobilized CD20 peptide, followed by fluorescence-activated cell sorting for full-length proteins using the C-terminal c-myc epitope. Plasmid DNA from selected clones was recovered, mutated by error-prone PCR of either the entire FN3 gene or the paratope loops, and reintroduced into yeast by electroporation with homologous recombination. As binder enrichment progressed in later evolutionary cycles, fluorescence-activated cell sorting for binding to soluble CD20 peptide was also used. Six cycles of selection and mutation were performed. Plasmid DNA was recovered, transformed into bacteria, and individual clones were sequenced by standard DNA sequencing methods.

[2] = biological target: T1, biotinylated human CD20 extracellular …; assay: affinity titration with yeast surface display and flow cytometry, biotinylated CD20
[3] = biological target: T2, human CD20 antigen on live Ramos cells (human, UniProt P11836 1-297); assay: radiotracer binding to Ramos cells
T2 construct: whole, on cells; Endogenous CD20 on Ramos cells (ATCC); also called cellular CD20; huCD20
T2 sequence (looked up): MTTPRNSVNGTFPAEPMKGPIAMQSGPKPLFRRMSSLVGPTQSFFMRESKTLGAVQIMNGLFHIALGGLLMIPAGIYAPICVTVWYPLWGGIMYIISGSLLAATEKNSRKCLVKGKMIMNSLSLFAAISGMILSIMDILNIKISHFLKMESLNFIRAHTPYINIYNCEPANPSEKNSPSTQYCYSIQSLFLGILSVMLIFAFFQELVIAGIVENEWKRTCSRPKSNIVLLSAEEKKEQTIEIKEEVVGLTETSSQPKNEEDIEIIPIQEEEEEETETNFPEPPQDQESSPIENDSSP

[4] = biological target: T2, human CD20 antigen on live Ramos cells; assay: flow cytometry on live Ramos cells, 1:1 fit; flow cytometry, live Ramos cells (cellular CD20)
Method: FIG. 1C illustrates a graph showing the antigen-binding activity of FN3CD20. Ramos cells were incubated with the indicated concentration (0.5-80 nM) of FITC-FN3CD20 for 1 h at 4° C. Cells were washed and analyzed by flow cytometry. The data are expressed as the mean±standard deviation of three independent experiments. Data were normalized with respect to saturated fluorescence intensity (plateau) observed at the highest target concentrations.

[5] = biological target: T1, biotinylated human CD20 extracellular …; assay: SPR (Biacore), biotin-CD20 peptide on a streptavidin chip, 1:1 fit, 25 C; SPR, CD20 peptide (amino acids 165-185)
Method: FN3CD20 protein (0.4, 2, 10, 50, 250, and 750 nM) was diluted in HBS and injected into the chip at a flow rate of 15 μL/min for 1 min at 25° C.
All measurements were performed at 25° C. on a BIAcore 100 instrument and streptavidin chip (GE healthcare Biosciences, PA). The streptavidin chip was first cleaned with three consecutive 1-min. injections of 40 μl, of a solution of 1 M NaCl in 50 mM NaOH before the immobilization procedure. Five minutes after the cleaning process when the sensorgram reached a stable baseline, biotynalated CD20 peptide, diluted in running buffer to 20 μg/mL, was injected for 7 min. using a flow rate of 5 μL/min. The same procedure was performed for immobilization of non-specific CD20 peptide, except that the non-specific CD20 peptide was diluted in running buffer to 200 μg/ml. To attain maximum immobilization level of biotin peptides on the surface of streptavidin, multiple injections were performed.
Target antigen of CD20 peptide was immobilized on a streptavidin chip. FN3CD20 was analyzed in 10 mM HEPES, pH 7.4, 150 mM NaCl, 0.005% Tween 20 at […] concentrations between 0 and 750 nM, and non-specific FN3 was used as control. The flow-rate was 15 μl/min; association and dissociation times were 1 and 2 min, respectively. […] The data were analyzed using BIAeval (BIAcore) software, with a global fitting to the 1:1 binding model. […]

B1: FN3CD20-01 (fibronectin type 3 domain clone selected against the CD20 peptide from the G4 library) (designed binder)
chain: ASVSDVPRDLEVVAATPTSLLISWHYTCAGSYRITYGETGGNSPVQEFTVPGSWKTATISGLKPGVDYTITVYAVTHYYGWDRYSHPISINYRTGSHHHHHH
notes: It was a library clone during selection
binding result [1]: binds

B4: FN3CD20 clone displayed on the yeast surface (designed binder, not shown: large carriers)
chain: ASVSDVPRDLEVVAATPTSLLISWCRQRCADSYRITYGETGGNSPVQEFTVPGSWKTATISGLKPGVDYTITVYVVTHYYGWDRYSHPISINYRTGSHHHHHH
notes: also called one clone; this clone
Kd [2]: 14.3 nM

B6: FN3CD20 (engineered fibronectin type 3 domain binding CD20, soluble, C-terminal His6 tag) (designed binder)
chain: B4 chain
notes: Made in E. coli with a His6 tag; also called FN3 scaffold
Kd [4]: 20 nM
Kd [5]: 22 nM

Continued, values first:

binding result [1]: binds
B2: FN3CD20-02 (fibronectin type 3 domain clone selected against the CD20 peptide from the G4 library) (designed binder)
chain: B1 chain with G30D, G52W, S53Y, W54V, K55S, T56N, A74V
notes: as for B1

binding result [1]: binds
B3: FN3CD20-03 (fibronectin type 3 domain clone selected against the CD20 peptide from the G4 library) (designed binder)
chain: ASVSDVPRDLGVVAATPTSLLISWHSSDVSYYRITYGETGGNSPVQEFTVPYWFTNTTISGLKPGVDYTITVYAATYRDCSSEPISINYRTGSHHHHHH
notes: as for B1

binding result [3]: binds
B5: 64Cu-Do-FN3CD20 (64Cu-DOTA-labelled FN3CD20) (designed binder)
chain: B4 chain
modifications: DOTA conjugated to primary amines (1.8 DOTA molecules per FN3 protein), chelating 64Cu
notes: also called 64Cu-FN3CD20; 64Cu-FN3
